Among the data in patent US20030165991A1 are IC50 values, retold here.

Assay [1] concerns the target antiserum from C430-BSA-immunized mice. The experiment in a line: CI-ELISA, immobilized phage-displayed DONPEP.2, antiserum after the fourth injection, free C430 as competitor. Background: ELISA stands for enzyme-linked immunosorbent assay.
In assay [2] the target is Monoclonal antibody mAB 6F5 (anti-deoxynivalenol monoclonal antibody from hybridoma cell line 6F5). The assay can be described thus: CD-ELISA, immobilized mAB 6F5; C430 competing with DON-HRP or C430-HRP conjugate.

For the molecule H-SWGPFPFGGGSC-OH [synthetic peptide C430 (NH2-…-COOH)], the IC50 in assay [1] is 390 nM; in assay [2], 640 to 800 nM.

In general, IC50 refers to the midpoint of a concentration-inhibition curve.
